From the nanobody polyreactivity screen of Harvey et al. (2022)

experiment: yeast display, Sf9 membrane polyspecificity reagent, FACS + sequencing; frameworks hold sequencing errors
Method in brief: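 A nanobody's polyreactivity label depends on the gate it was sorted from. Yeast display cells were stained with 10% biotinylated, detergent-solubilized Sf9 membrane reagent for 1 hour at 4 °C, enriched on streptavidin microbeads and sorted by FACS. The low and high (top ~1%) gates were set on anti-HA fluorescence for expression and streptavidin fluorescence for reagent binding.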

Question: Which “polyreactivity (PSR sort gate)” value does the source give for “QVQLVESGGGLVQAGGSLRLSCAASGFTFLFNAMGWYRQAPGKERELVADITWSGGSTYYADSVKGRFTISRDNAKNTVYLQMNSLKPEDTAVYYCAASDDWSTPIYYYSVFDYDYWGQGTQVTVSS” here?
Answer: high polyreactivity

Question: For “QVQLVESGGGLVQAGGSLRLSCAASGRIFGWYAMGWYRQAPGKERELVAAISSAGRTYYADSVKGRFTISRDNAKNTDYLQMNSLKPEDTAVYYCAAEIARSFYRYTYYYWGQGTQVTVSS”, which “polyreactivity (PSR sort gate)” value is on record?
Answer: high polyreactivity

Question: Which “polyreactivity (PSR sort gate)” value does the source give for “QVQLVESGGGLVQAGGSLRLSCAASGSIFWYNAMGWYRQAPGKEREFVATITNGTTTNYADSVKGRFTISCDNAKNTVYLQMNSLKPEDTAVYFCAVTGVYVKYDYWGQGTHVTVSS” here?
Answer: low polyreactivity

Question: With “QVQLVESGRALVQAGGSLRLSCASSVRIFVRNAMGWYRQAPGKESELVAAISARGGRTNYADSVKGRFTISRDNAKNTVYLQMNSLKPDDTAVYYCAAVGFRAAYLYDYWGQGTQVTVSS” as the sequence, how does the “polyreactivity (PSR sort gate)” value read?
Answer: high polyreactivity

Question: Which “polyreactivity (PSR sort gate)” value does the source give for “QVQLVESGGGLVQAGCSLRLSCAASGSIFYFYGMGWYRQAPGKERELVASITYSGTSTYYADSVKGRFTISRDNAMITVYLQMNSLKPEDTAVYYCAASFYTVNSWYDSWGQGTQVTVSS” here?
Answer: low polyreactivity

Question: Which “polyreactivity (PSR sort gate)” value does the source give for “QVQHVESGGGLVQAGGSLSLSCAASGRTILWNAMGWYRQAPGKERELVAAITSGGRTYYADSVKGRFTISRDNAKNTVYLQMNSLIPEDTAVYYCAASTVYWSTVNSQARFNYWGQGTQVTVSS” here?
Answer: high polyreactivity

Question: With “QVHLVESGGGLVQAGGSLRLSCAASGFIFGRNAMGWYRQAPGKEREFVAALTRIGGNTYYADSVKGRFTISRDNAKNTVYLQMNSLKPEDTAVYYCAARLSYFHAYGFYWGQGTQVTVSS” as the sequence, how does the “polyreactivity (PSR sort gate)” value read?
Answer: high polyreactivity

Question: With “QVQLVESGGGLVQAGGSLRLSCAASGIIFASNAMGWYRQTPGKERELVAAISGSGGRTYYADSVKGRFTISRDNAKNTVYLQMNSLKPDDTAVYYGAAARANNYDYWGQGTQVTVSS” as the sequence, how does the “polyreactivity (PSR sort gate)” value read?
Answer: high polyreactivity

Question: For “QVQLVESGGGLVQAGGSLRLSCAASGRIFWSNAMGWYRQAPGKEREFVAAISSSGGRTYYADSVKGRFTISRDNAKNTVYLQMNSLKPEDTAVYYCAASNGYQAVTYDYWGQGTQVTVSS”, which “polyreactivity (PSR sort gate)” value is on record?
Answer: high polyreactivity

Question: Which “polyreactivity (PSR sort gate)” value does the source give for “QVQLVESVGGLVQAGGSLRLSCAASGITFRYYAMGWYRQAPGKERELVADINRGSDTNYADSVKGRFTISRDNAKNTVYLQMNSLKPEDTAVYYCAARSFRSRFRLYIVEFGGYDYWGQGTQVTVSS” here?
Answer: low polyreactivity

Question: With “QVQLVESGGGLVQAGGSLRLSCPASGSTFEDNAMGWYRQAPGKERELVAAISRTGGRTYYADSVKGRFTISRDNAKNTVYLQMNSLKPEDTAVYYCNAVYPAQRMDYWGQGTQVTVSS” as the sequence, how does the “polyreactivity (PSR sort gate)” value read?
Answer: high polyreactivity

Question: For “QVQLVESGGGLDQAGGSLRLSCAASGRIFSYYTMGWYRQAPGKERELVAAITWGGGSTSYADSVKGRFTISRDNAKNTVYLQMNSLKPEDTAVYYCAESPGANRMDYWGQGTQVTVSS”, which “polyreactivity (PSR sort gate)” value is on record?
Answer: low polyreactivity

Question: With “QVQLVESGGGLVQAGGSLRLSCAASGRIIDDNAMGWYRQAPGKERELVASITVSTGSTYYADSVKGRFTISRDNAKNTVYLQMNSLKPEDTAVYYCDAPYITPYGTYVFSSDYWGQGTQVTVSS” as the sequence, how does the “polyreactivity (PSR sort gate)” value read?
Answer: low polyreactivity

Question: For “QVQLVESGGGLVQAGGRLRLSCAASGSIIISNGMGWSRQAPGKERELVATISWIGGSTYYADSVKGRFTISRDNAKNTVYLQMNSLKPEDTAVYYCAADVVLARPFEGDYWGQGTQVTVSS”, which “polyreactivity (PSR sort gate)” value is on record?
Answer: low polyreactivity

Question: For “QVQLVESGGGLVQAGGSLRLSCAASGRTFRPYAMGWYRQAPGKEREFVARITWSGGTTYYADSVKGRFTISRDNAKNTVYLQMNRLKPEDTAVYYCAARVSRQTPVISYNYWGQGTQVTVSS”, which “polyreactivity (PSR sort gate)” value is on record?
Answer: low polyreactivity

Question: Which “polyreactivity (PSR sort gate)” value does the source give for “QVQLVESGEGLVQAGGSLRLICAASGRNFYSNAMVWYRQAPGKERELVAAMSYSGGSTYYADSVKGRFTISRDNAKNTVYLQMNSLKPEDTAVYYCAADTTYWPYWGTYVVYDYWGQGTQVTVSS” here?
Answer: low polyreactivity

Question: For “QVQLVESGGGLVQAGGSLRLSCAASGRIFWAYAMGWYRQAPGKERELVAVITIGGRTNYADSVKGRFTISRDNAKNTVYLQMNSLKPEDTAVYYCAAERHIITWPYSRYYYWGQGTQVTVSS”, which “polyreactivity (PSR sort gate)” value is on record?
Answer: high polyreactivity

Question: With “QVQLVESGGGLVQAGGSLRLSCAASGSIFVSNAMGWYRQAPGKERELVAAITSSGSTDYADSVKGRFTISRDNAKNTVYLQMNSLKPDDTAVYYCAAESDHTFFLWSLNDSWGQGTQVTVSS” as the sequence, how does the “polyreactivity (PSR sort gate)” value read?
Answer: low polyreactivity

Question: Which “polyreactivity (PSR sort gate)” value does the source give for “QVQLVESGGGLVQAGGSLRLSCAASGSIFRKNAMGWYRQAPGKERELVAAISSSGGRTYYADSVKGRFTISRDNAKNTVYLQMNSLKPEDTAVYYCNTGPGQSFRYNYWGQGTQVTVSS” here?
Answer: high polyreactivity

Question: Which “polyreactivity (PSR sort gate)” value does the source give for “QVQLVESGGGLVQAGGSLRLSCAASGFIFLSYAMGWYRPAPGKERELVAAISGRGGSTYYADSVKGRFTISRDNAKNTVYLQMNSLKPEDTAVYYCAARLYRYNYDYWGQGTQVTVSS” here?
Answer: high polyreactivity

Question: For “QVQLVESGGGCVQAGGSLRLSCAASGFIFEQNAKGWYRQARGKEWELVARISWRGGSTYYADSEKGRFTISRDKAKITVYLQMNSLKPEDSAVYYCNAHEVDYFGYYPSDYWGQGTQVTVSS”, which “polyreactivity (PSR sort gate)” value is on record?
Answer: low polyreactivity

Question: Which “polyreactivity (PSR sort gate)” value does the source give for “QVQLVESGGGLVQAGGSLRLSCAASGRIFYPYAMGWYRQAPGKERELVAAITSGGRTNYADSVKGRFTISRDNAKNTVYLQMNSLKPEDTAVYYCAATRFRHGKRMDYWGQGTQVTVSS” here?
Answer: high polyreactivity

Question: Which “polyreactivity (PSR sort gate)” value does the source give for “QVQLVESGGGLVQAGGSLRLSCAPSGSTFEHYTMGWYRQAPGKERELVAAISRRGGRTYYADSVKGRFTISRDNAKNTVYLQMNSLKPEDTAVYYCNAPVYTRKSIDYDYCGQGTQVTVSS” here?
Answer: high polyreactivity

Question: With “QDQLVESGGGLVQAGGSLRLSCAASGFIYFQYAMGWYRQAPGKERELVAAISGSGVTTYYADSVKGRFTISRDNAKYTVYLQMNSLKPEDTAVYYCNAALRWKYDWGQGTQVTVSS” as the sequence, how does the “polyreactivity (PSR sort gate)” value read?
Answer: low polyreactivity

Question: For “QVQLVESGGGLVQAGGSLRLSCAASGITFPYYAMGWDRQAPGKERELVAAISSSGGSTYYADSVKGRFTISRDNAKNTVYLQMNSLKPEDTAVYYCAAQRYINYDYWGQGTQVTVSS”, which “polyreactivity (PSR sort gate)” value is on record?
Answer: high polyreactivity

Question: With “QVQLVDSGGGLVQAGGSLRLSCAASGRTFGSYAMGWSRQAPGKERELVAAISSSGGRTYYADSVKGRFTISRDNAKNTVYLQLNSLKPEDTAVYYCNARWRFLYDYWGQGTQVTVSS” as the sequence, how does the “polyreactivity (PSR sort gate)” value read?
Answer: high polyreactivity

Question: Which “polyreactivity (PSR sort gate)” value does the source give for “QVQLVESGGGLVQAGGSLRLICAASGNTFSVYTMGWYRQAPGKERELVAAISFRSGSTYYADSVKGRFTISRDNAKNTVYLLMNSLKPEDTAVYYCAAYVRQLQVVRGVSNYDSWGQGTQVTVSS” here?
Answer: high polyreactivity

Question: With “QVQLVESGGGLVQAGGSLRLSCAASGSTFYFYAMGWYREAPGKERELVAAISKRGTSTYYADSVKGRFTISRDNAKNTVYLEMNSLKPEDTAVYFCAADAPRGYNYWGQGTQVTVSS” as the sequence, how does the “polyreactivity (PSR sort gate)” value read?
Answer: high polyreactivity

Question: For “QVQLVESGGGLVQAGGSLRLSCAASGSTILVNAMGWYRQAPGKERELVAAISRGGSTYYADSVKGRFTISRDNAKNTVYLQMTSLKPEDTAVSYCAARGVYVKYYYWGQGTQVTVSS”, which “polyreactivity (PSR sort gate)” value is on record?
Answer: high polyreactivity

Question: For “QVQLVESGGGLVQAGGSLRLSCADSGGTFKLYAMGWYSQAPAKESELVAAISRRGGSTYYADSVKGRFTISRDNAKNTVYLQMNSLKPDDTAVYYCAAPGPTQSTQRGGYWGQGTQVTVSS”, which “polyreactivity (PSR sort gate)” value is on record?
Answer: high polyreactivity

Question: With “QVQLVESGGGVVQAGGSLRLSCAASGRIFPYNAMGWYRQAPGKERELVAAISSGGSTTYADSVKGRFTISRDNAKNTVYLHMNSLKPEDTAVYYCAREVYRHYAPVGYDYWGQGTQVTVSS” as the sequence, how does the “polyreactivity (PSR sort gate)” value read?
Answer: high polyreactivity

Question: For “QVQLVESGGGLVQAGGSLRLSCAASGSIFHLYAMGWYRQAPGKERELVAAITWTGGSTYYADSVKGRFTISRDNAKNTVYLQMNSLKPEDTAVYYCAARQQVRLRPGPLYYYWGQGTQVTVSS”, which “polyreactivity (PSR sort gate)” value is on record?
Answer: high polyreactivity

Question: For “QVQLVESGGGLVQAGGSLRLSCAASGSTFYLYVMGWYRQAPGKERELVAAIRRSGTRTYYADSVKGRFTISRDNAKNTVYLQMNSLKPEDTAVYYCAARYSRPSKAYGYWGQGTQVTVSS”, which “polyreactivity (PSR sort gate)” value is on record?
Answer: high polyreactivity

Question: Which “polyreactivity (PSR sort gate)” value does the source give for “QVQLVESGGGLVQAGGSLRLSCAASGLILRRYAMGWYRQAPGKERELVAAITSGGRTYYADSVKGRFTISRDNAKNTVYLQMNSLKPEDTAVYYCNAVKLVRHTTPYDYWGQGTQVTVSS” here?
Answer: high polyreactivity

Question: Which “polyreactivity (PSR sort gate)” value does the source give for “QVQLVESGGGLVQAGGSLRLSCAASGITFFYYAMGWYRQAPGKEMELVAAIRYYGTSTYADSVKGRFTISRDNAKNTVYLQMNSLKPEDTAVYYCAAVFWFVGSLYDYWGQGTQVTVSS” here?
Answer: low polyreactivity

Question: With “QVQLVESGGGLVQAGGSLRLSCAASGYTFGSNAMGWYRQAPGKERELVAAISTNGGRTNYADSVKGRFTISRDYAKNSVYLQMYSLIPEDTAVYYCNTRLRVRYYLSGFDYWGQGTQVTVSS” as the sequence, how does the “polyreactivity (PSR sort gate)” value read?
Answer: high polyreactivity

Question: For “QVQLVESGGGLVQAGGSLRLSCAASGSISWVYAMGWYRQAPGKERELVAAISNSGGSTYYADSVKGRFTISRDNAKNTVYLQMNSLKPEDTAVYYCAADGYFYYSAFWASPYEYWGQGTQVTVSS”, which “polyreactivity (PSR sort gate)” value is on record?
Answer: high polyreactivity

Question: For “QVQLVESGGGLVQAGGSLRLSCAASGIIYIGNAMGWYRQAPGKERELVAAITYTGGSTYYADSVKGRFTISRDNAKNTVYLQMNSLKPEDTAVYYCDFDRTHLEDDYWGQGTQVTVSS”, which “polyreactivity (PSR sort gate)” value is on record?
Answer: low polyreactivity

Question: Which “polyreactivity (PSR sort gate)” value does the source give for “QVQLVESGGGLVQAGGSLRLSCAASGFTFRRYTMGWYRQAPGKERELVAAISRSGGSTFYADSVKGRFTISRDYAKNTVYLQMNSLKPEDTAVYYCNAGRTYTALNGDYWGQGTQVTVSS” here?
Answer: high polyreactivity

Question: With “QVQHVESGGCLVQAGGSLRLSCASSGRTFARYAMGWSRQPPGKDSELVAAITRRGGSTYYADSVKGRFTLSRDNAKNTVSLQMNSLKPEDTAVYYCAAHYRNFGIGAYEYWGKGTQVTVSS” as the sequence, how does the “polyreactivity (PSR sort gate)” value read?
Answer: high polyreactivity

Question: For “QVQLVESGGGLVQAGGSLRLICAASGSTFSYYAMGWYRQAPGKEMELVAAITSGSSTNYADSVKGRFTISRDNAKNTVYLQMNSLKPEDTAVYYCAASPQPKTYRRRYYYWGQGTQVTVSS”, which “polyreactivity (PSR sort gate)” value is on record?
Answer: high polyreactivity

Question: With “QDQLVESGGGLVQAGGSLRISCAASGSIFDVNAMGWYRQAPGKERELVAAISDSGGSTYYADSVKGRFTISRDNAKNTVYLEMNSLKPVDTAVYYCNADWSWYNYYDFDYWGQGTQVTVSS” as the sequence, how does the “polyreactivity (PSR sort gate)” value read?
Answer: low polyreactivity

Question: With “QVQLVESGGGLVQAGGSLRLSCAASGSTCFHYSMGWYRQAPGKERELVAAITGTGRTTYADSVKGRFTISRDNAKTTVYLQMNSLKPEDTAVYYCAADVNYYQHRLYYWGQGTQVTVSS” as the sequence, how does the “polyreactivity (PSR sort gate)” value read?
Answer: low polyreactivity
